Test results as given in US20230002480A1.

Legend:
Experiment in all cases: cell-based or functional assay
[1] = target: HIV-1 Env of pseudovirus RHPA4259.7 (HIV-1)
[2] = target: HIV-1 Env of pseudovirus CNE30 (HIV-1)
[3] = target: HIV-1 Env of pseudovirus 1006_11_C3_1601 (HIV-1)
[4] = target: HIV-1 Env of pseudovirus TRO.11 (HIV-1)
[5] = target: HIV-1 Env of pseudovirus T250-4 (HIV-1)
[6] = target: HIV-1 Env of pseudovirus Ce1172_H1 (HIV-1)
[7] = target: HIV-1 Env of pseudovirus 6535.3 (HIV-1)
[8] = target: HIV-1 Env of pseudovirus 6244_13_B5_4576 (HIV-1)
[9] = target: HIV-1 Env of pseudovirus Ce704809221_1B3 (HIV-1)
[10] = target: HIV-1 Env of pseudovirus Ce2060_G9 (HIV-1)
[11] = target: HIV-1 Env of pseudovirus WITO4160.33 (HIV-1)
[12] = target: HIV-1 Env of pseudovirus BF1266.431a (HIV-1)
[13] = target: HIV-1 Env of pseudovirus Q259.d2.17 (HIV-1)
[14] = target: HIV-1 Env of pseudovirus 191084 B7-19 (HIV-1)
[15] = target: HIV-1 Env of pseudovirus CNE58 (HIV-1)
[16] = target: HIV-1 Env of pseudovirus 1394C9G1(Rev-) (HIV-1)
[17] = target: HIV-1 Env of pseudovirus Du172.17 (HIV-1)
[18] = target: HIV-1 Env of pseudovirus HIV-16845-2.22 (HIV-1)
[19] = target: HIV-1 Env of pseudovirus 1054_07_TC4_1499 (HIV-1)
[20] = target: HIV-1 Env of pseudovirus QH0692.42 (HIV-1)
[21] = target: HIV-1 Env of pseudovirus 191955_A11 (HIV-1)
[22] = target: HIV-1 Env of pseudovirus WEAU_d15_410_787 (HIV-1)
[23] = target: HIV-1 Env of pseudovirus 7030102001E5(Rev-) (HIV-1)
[24] = target: HIV-1 Env of pseudovirus 62357_14_D3_4589 (HIV-1)
[25] = target: HIV-1 Env of pseudovirus CAP45.2.00.G3 (HIV-1)
[26] = target: HIV-1 Env of pseudovirus 249M B10 (HIV-1)
[27] = target: HIV-1 Env of pseudovirus CNE17 (HIV-1)

Work on PG16 (antibody) yielded an IC50, titer in TZM.bl cells [1] of 0.375 µg/mL, an IC80, titer in TZM.bl cells [1] of 3.92 µg/mL and an IC50, titer in TZM.bl cells [2] greater than 50 µg/mL. The IC80, titer in TZM.bl cells [2] was greater than 50 µg/mL, the IC50, titer in TZM.bl cells [3] was greater than 50 µg/mL and the IC80, titer in TZM.bl cells [3] was greater than 50 µg/mL. For the same substance, the IC50, titer in TZM.bl cells [4] was 1.92 µg/mL, the IC80, titer in TZM.bl cells [4] was 49.6 µg/mL and the IC50, titer in TZM.bl cells [5] was 0.002 µg/mL. It also gave an IC80, titer in TZM.bl cells [5] of 0.005 µg/mL, an IC50, titer in TZM.bl cells [6] of 0.007 µg/mL and an IC80, titer in TZM.bl cells [6] of 0.037 µg/mL. The IC50, titer in TZM.bl cells [7] was 0.653 µg/mL, the IC80, titer in TZM.bl cells [7] was greater than 50 µg/mL and the IC50, titer in TZM.bl cells [8] was greater than 50 µg/mL. For the same substance, the IC80, titer in TZM.bl cells [8] was greater than 50 µg/mL, the IC50, titer in TZM.bl cells [9] was 0.021 µg/mL and the IC80, titer in TZM.bl cells [9] was 0.116 µg/mL. The IC50, titer in TZM.bl cells [10] was 0.075 µg/mL, the IC80, titer in TZM.bl cells [10] was 1.71 µg/mL and the IC50, titer in TZM.bl cells [11] was 0.002 µg/mL. For the same substance, the IC80, titer in TZM.bl cells [11] was 0.012 µg/mL, the IC50, titer in TZM.bl cells [12] was 0.003 µg/mL and the IC80, titer in TZM.bl cells [12] was 0.009 µg/mL. The IC50, titer in TZM.bl cells [13] was 0.065 µg/mL, the IC80, titer in TZM.bl cells [13] was 45.9 µg/mL and the IC50, titer in TZM.bl cells [14] was 0.024 µg/mL. The IC80, titer in TZM.bl cells [14] was 0.238 µg/mL, the IC50, titer in TZM.bl cells [15] was 0.044 µg/mL and the IC80, titer in TZM.bl cells [15] was 0.25 µg/mL. For the same substance, the IC50, titer in TZM.bl cells [16] was 0.008 µg/mL, the IC80, titer in TZM.bl cells [16] was 0.056 µg/mL and the IC50, titer in TZM.bl cells [17] was 0.033 µg/mL. For the same substance, the IC80, titer in TZM.bl cells [17] was 0.213 µg/mL, the IC50, titer in TZM.bl cells [18] was 3.13 µg/mL and the IC80, titer in TZM.bl cells [18] was greater than 50 µg/mL. It also gave an IC50, titer in TZM.bl cells [19] greater than 50 µg/mL, an IC80, titer in TZM.bl cells [19] greater than 50 µg/mL and an IC50, titer in TZM.bl cells [20] greater than 50 µg/mL. It also gave an IC80, titer in TZM.bl cells [20] greater than 50 µg/mL, an IC50, titer in TZM.bl cells [21] of 0.009 µg/mL and an IC80, titer in TZM.bl cells [21] of 0.042 µg/mL. It also gave an IC50, titer in TZM.bl cells [22] of 0.435 µg/mL, an IC80, titer in TZM.bl cells [22] greater than 50 µg/mL and an IC50, titer in TZM.bl cells [23] greater than 50 µg/mL. It also gave an IC80, titer in TZM.bl cells [23] greater than 50 µg/mL, an IC50, titer in TZM.bl cells [24] greater than 50 µg/mL and an IC80, titer in TZM.bl cells [24] greater than 50 µg/mL. The IC50, titer in TZM.bl cells [25] was 0.001 µg/mL, the IC80, titer in TZM.bl cells [25] was 0.003 µg/mL and the IC50, titer in TZM.bl cells [26] was 0.026 µg/mL. For the same substance, the IC80, titer in TZM.bl cells [26] was 1.25 µg/mL, the IC50, titer in TZM.bl cells [27] was 0.029 µg/mL and the IC80, titer in TZM.bl cells [27] was 0.132 µg/mL.
